Experimental data: patent US20210340270A1 (Amgen, published 2021)

Tests used:
[1] = molecular target: T1, Recombinant Mouse DLL4 His tag (R&D Systems Cat #: 1389-D4-050) (mouse, UniProt Q9JI71 28-525); test: ELISA, 1 ug/ml ligand coated on the plate, 15D11.1 titrated, absorbance 450 nm
T1 construct: Bought construct; also called murine Deltalike 4; not shown: His tag
Method: (§1) 15D11.1 was tested for binding to recombinant purified Notch ligands; human Jagged1 Fc (Recombinant Human Jagged 1 Fc chimera—R&D Systems Cat #: 1277-M-050), human Jagged1 His (Human JAG1/Jagged1 His Tag Sino Biological Cat #: 11648-H08H), rat Jagged1 Fc (Recombinant Rat Jagged 1 Fc chimera—R&D Systems—Cat #: 599-JG-050), human Jagged2 (Recombinant Human Jagged 2 Fc chimera—R&D Systems Cat #: 1726-JG-050), murine Jagged2 (Recombinant Mouse Jagged 2 Fc chimera—R&D Systems Cat #: 4748-JG-050), murine Delta-like 1 (Recombinant Mouse DLL1 His tag—Sino Biological Cat #: 50522-M08H-50), human Deltalike 4 (Recombinant Human DLL4 His tag—R&D Systems—Cat #: 1506-D4-050) and murine Deltalike 4 (Recombinant Mouse DLL4 His tag—R&D Systems—Cat #: 1389-D4-050) using a standard enzyme-linked immunosorbent assay (ELISA). 1 ug/ml of Notch ligand protein (as indicated) in PBS, pH7.4, was coated onto ELISA plates (Nunc Maxisorp) at 4° C. overnight. Plates were blocked with Casein blocker in PBS (Pierce) for one hour at room temperature. Serial 2-fold dilutions of 15D11.1
(§2) in PBST buffer (PBT buffer (PBS+0.05% (v/v) Tween 20) with 0.5% (w/v) BSA) were added to the plates and incubated for one hour at room temperature. The plates were then washed with PBST and bound antibodies were detected with peroxidase-conjugated goat anti-human Fab specific IgG (Sigma). TMB substrate (3,3′,5,5′-tetramethylbenzidine) was used and absorbance at 450 nm was read using a standard ELISA plate reader. Absorbance was plotted against concentrations of 15D11.1 in FIGS. 8A and 8B.

[2] = molecular target: T2, Recombinant Mouse DLL1 His tag (Sino Biological Cat #: 50522-M08H-50) (mouse, UniProt Q61483 18-540); test: as above
T2 construct: Bought construct; also called murine Delta-like 1; not shown: His tag
Method: as §1, §2

[3] = molecular target: T3, Recombinant Human Jagged 2 Fc chimera (R&D Systems Cat #: 1726-JG-050) (human, UniProt Q9Y219 27-1080); test: as above
T3 construct: Bought construct; not shown: Fc part and any linker of the bought chimera not described
Method: as §1, §2

[4] = molecular target: T4, Recombinant Mouse Jagged 2 Fc chimera (R&D Systems Cat #: 4748-JG-050) (mouse, UniProt Q9QYE5 27-1082); test: as above
T4 construct: Bought construct; also called murine Jagged2; not shown: Fc part and any linker of the bought chimera not described
Method: as §1, §2

[5] = molecular target: T5, Recombinant Human DLL4 His tag (R&D Systems Cat #: 1506-D4-050) (human, UniProt Q9NR61 27-524); test: as above
T5 construct: Bought construct; also called human Deltalike 4; not shown: His tag
Method: as §1, §2

[6] = molecular target: T6, recombinant human Jagged1 extracellular domain (Met 1-Ser 1046), fused with a polyhistidine tag at the … (human, UniProt P78504 34-1046); test: Octet Red96 BLI; mAb captured on AHC anti-HuFc biosensors, soluble hJagged1 as analyte; mean of 3 experiments
T6 construct: Bought protein; also called hJagged1; soluble recombinant hJagged1; not shown: C-terminal polyhistidine tag
Method: (§3) The affinity of the soluble recombinant hJagged1 was determined in Octet platform (Octet Red96) under the manufactures recommended kinetic measurement settings. Briefly, hJagged1 was diluted 1 to 3 from 150 nM to 0.5 nM in Octet buffer (10 mM Tris base, 150 mM NaCl, 1 mM CaCl2, 0.1 mg/ml BSA, 0.1% Triton X100) and 60 ul of this serial diluted samples were taken in 384 well tilted bottom (TW384) black polypropylene microplate (Forte Bio, Cat #18-0019) (sample plate). 3 ug/ml of anti-hJagged1 mAb 15D11.1 present in 60 ul in sample plate was used and captured on AHC—anti-HuFc (Kinetic) biosensors (cat #18-5060). A sample with buffer alone is used as a control.

[7] = molecular target: T7, Recombinant Human Jagged 1 Fc chimera (R&D Systems Cat #: 1277-M-050) (human, UniProt P78504 32-1046); test: ELISA, 1 ug/ml ligand coated on the plate, 15D11.1 titrated, absorbance 450 nm; single experiment shown (the text prints only a mean of n = 3)
T7 construct: also called hJAG1 Fc; not shown: Fc part and any linker of the bought chimera not described
Method: as §1, with “1 ug/ml of Notch ligand protein (as indicated) in PBS, pH7.4, was coated onto ELISA plates (Nunc Maxisorp) at 4° C. overnight. Plates were blocked with Casein blocker in PBS (Pierce) for one hour at room temperature. Serial 2-fold dilutions of 15D11.1” left out
as §2

[8] = molecular target: human and rat Jagged-1 (recombinant purified Notch ligands in the ELISA); test: direct binding ELISA on recombinant purified Notch ligands
[9] = molecular target: human Jagged-1 expressed on transfected 293 / 293T cells (human, UniProt P78504 34-1218); test: cell-based or functional assay
[10] = molecular target: murine Jagged-1 stably expressed on 293T cells (mouse, UniProt Q9QXX0 34-1218); test: cell-based or functional assay
[11] = molecular target: T7, Recombinant Human Jagged 1 Fc chimera …; test: direct binding ELISA; 1 ug/ml ligand coated, antibody titrated, anti-human Fab-HRP detection (printed as IC50)
Method: as §1, §2

[12] = molecular target: T8, Recombinant Rat Jagged 1 Fc chimera (R&D Systems Cat #: 599-JG-050) (rat, UniProt Q63722 32-1046); test: as above
T8 construct: Bought construct; also called rJAG1; not shown: Fc part and any linker of the bought chimera not described
Method: as §1, §2

[13] = molecular target: T9, Human JAG1/Jagged1 His Tag (Sino Biological Cat #: 11648-H08H) (human, UniProt P78504 34-1046); test: as above
T9 construct: also called human Jagged1 His; hJAG1 His; not shown: His tag
Method: as §1, §2

[14] = molecular target: T6, recombinant human Jagged1 extracellular …; test: Octet Red96 BLI; mAb captured on AHC anti-HuFc biosensors, soluble hJagged1 as analyte; mean of 3 experiments (same KD as r8c2, in nM)
Method: as §3

Chain of human Jagged-1 expressed on transfected 293 / 293T cells (P78504 34-1218 P227R/N498D limits assumed): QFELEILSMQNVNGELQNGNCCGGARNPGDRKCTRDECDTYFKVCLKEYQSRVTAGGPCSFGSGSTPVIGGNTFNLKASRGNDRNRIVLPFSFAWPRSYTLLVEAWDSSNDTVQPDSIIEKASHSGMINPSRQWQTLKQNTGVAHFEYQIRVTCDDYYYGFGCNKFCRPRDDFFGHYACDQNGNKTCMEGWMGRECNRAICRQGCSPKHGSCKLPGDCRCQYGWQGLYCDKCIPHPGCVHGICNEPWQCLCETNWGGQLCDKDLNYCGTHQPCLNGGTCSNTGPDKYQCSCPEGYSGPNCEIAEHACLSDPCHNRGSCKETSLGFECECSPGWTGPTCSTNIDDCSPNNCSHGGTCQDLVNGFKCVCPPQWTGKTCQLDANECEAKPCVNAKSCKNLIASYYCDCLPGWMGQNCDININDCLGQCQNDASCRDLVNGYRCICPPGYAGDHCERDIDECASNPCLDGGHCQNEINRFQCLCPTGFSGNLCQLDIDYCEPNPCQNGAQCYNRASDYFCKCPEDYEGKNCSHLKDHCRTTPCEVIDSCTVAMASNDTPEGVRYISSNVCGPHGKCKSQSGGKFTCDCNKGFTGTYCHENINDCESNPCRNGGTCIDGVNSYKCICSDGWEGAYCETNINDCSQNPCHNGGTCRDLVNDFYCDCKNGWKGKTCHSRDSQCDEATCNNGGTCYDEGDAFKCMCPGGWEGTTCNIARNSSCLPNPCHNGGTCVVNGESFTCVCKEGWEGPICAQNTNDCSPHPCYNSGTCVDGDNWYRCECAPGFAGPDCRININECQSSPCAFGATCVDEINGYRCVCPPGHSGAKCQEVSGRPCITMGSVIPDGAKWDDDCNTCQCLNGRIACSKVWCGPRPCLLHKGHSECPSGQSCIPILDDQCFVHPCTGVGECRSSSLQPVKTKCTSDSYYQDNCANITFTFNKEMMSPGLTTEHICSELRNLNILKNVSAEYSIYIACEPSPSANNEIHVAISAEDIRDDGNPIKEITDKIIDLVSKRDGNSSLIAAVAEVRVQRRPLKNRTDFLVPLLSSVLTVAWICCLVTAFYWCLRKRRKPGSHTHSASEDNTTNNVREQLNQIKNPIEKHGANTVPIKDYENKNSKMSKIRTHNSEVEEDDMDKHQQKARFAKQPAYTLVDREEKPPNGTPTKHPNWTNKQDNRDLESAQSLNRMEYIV
Chain of murine Jagged-1 stably expressed on 293T cells (Q9QXX0 34-1218): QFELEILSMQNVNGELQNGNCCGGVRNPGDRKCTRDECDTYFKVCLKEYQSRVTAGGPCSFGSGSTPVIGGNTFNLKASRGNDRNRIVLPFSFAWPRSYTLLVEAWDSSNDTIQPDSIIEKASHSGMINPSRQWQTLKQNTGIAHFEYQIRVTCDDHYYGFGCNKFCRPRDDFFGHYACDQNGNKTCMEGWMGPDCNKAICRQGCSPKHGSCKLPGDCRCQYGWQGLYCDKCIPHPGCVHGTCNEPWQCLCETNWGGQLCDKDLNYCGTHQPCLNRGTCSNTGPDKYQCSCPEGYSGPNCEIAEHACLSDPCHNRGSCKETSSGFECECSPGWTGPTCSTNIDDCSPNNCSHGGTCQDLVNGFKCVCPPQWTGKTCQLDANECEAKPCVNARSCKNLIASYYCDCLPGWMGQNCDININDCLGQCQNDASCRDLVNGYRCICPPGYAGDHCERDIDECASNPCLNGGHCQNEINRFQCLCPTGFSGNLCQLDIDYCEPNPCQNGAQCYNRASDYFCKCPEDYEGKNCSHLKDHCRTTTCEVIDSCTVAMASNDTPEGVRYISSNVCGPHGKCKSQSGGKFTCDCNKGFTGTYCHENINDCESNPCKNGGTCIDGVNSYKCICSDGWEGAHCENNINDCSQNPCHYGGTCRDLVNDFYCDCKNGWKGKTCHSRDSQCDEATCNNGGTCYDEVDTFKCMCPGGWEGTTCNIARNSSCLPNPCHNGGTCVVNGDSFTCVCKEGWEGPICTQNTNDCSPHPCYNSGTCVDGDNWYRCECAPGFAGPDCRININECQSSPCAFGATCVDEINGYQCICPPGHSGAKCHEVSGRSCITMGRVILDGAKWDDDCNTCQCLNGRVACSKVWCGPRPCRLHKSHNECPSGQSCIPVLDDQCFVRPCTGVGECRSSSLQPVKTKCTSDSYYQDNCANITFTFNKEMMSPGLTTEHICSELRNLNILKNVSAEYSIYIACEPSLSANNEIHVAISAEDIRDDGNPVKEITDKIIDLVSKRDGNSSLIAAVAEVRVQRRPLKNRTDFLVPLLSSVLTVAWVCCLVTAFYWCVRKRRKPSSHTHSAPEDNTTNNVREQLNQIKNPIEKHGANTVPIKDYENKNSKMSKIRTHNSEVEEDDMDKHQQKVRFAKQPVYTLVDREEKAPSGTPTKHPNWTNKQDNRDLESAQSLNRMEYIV
T5 sequence (Q9NR61 27-524 limits assumed): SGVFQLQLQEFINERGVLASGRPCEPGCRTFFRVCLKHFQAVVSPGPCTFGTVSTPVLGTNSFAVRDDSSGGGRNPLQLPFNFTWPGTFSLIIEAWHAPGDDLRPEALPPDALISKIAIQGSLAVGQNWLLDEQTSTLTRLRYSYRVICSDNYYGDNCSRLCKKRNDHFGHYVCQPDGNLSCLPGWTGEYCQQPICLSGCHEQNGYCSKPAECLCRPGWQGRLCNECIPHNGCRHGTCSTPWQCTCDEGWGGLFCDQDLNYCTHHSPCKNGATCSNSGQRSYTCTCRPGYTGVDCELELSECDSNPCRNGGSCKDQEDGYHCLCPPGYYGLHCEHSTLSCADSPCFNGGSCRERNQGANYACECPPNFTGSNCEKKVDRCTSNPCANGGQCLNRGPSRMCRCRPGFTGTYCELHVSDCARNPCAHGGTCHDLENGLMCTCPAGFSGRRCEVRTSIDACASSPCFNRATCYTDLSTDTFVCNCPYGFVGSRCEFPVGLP
T2 sequence (Q61483 18-540 limits assumed, stated change not applied): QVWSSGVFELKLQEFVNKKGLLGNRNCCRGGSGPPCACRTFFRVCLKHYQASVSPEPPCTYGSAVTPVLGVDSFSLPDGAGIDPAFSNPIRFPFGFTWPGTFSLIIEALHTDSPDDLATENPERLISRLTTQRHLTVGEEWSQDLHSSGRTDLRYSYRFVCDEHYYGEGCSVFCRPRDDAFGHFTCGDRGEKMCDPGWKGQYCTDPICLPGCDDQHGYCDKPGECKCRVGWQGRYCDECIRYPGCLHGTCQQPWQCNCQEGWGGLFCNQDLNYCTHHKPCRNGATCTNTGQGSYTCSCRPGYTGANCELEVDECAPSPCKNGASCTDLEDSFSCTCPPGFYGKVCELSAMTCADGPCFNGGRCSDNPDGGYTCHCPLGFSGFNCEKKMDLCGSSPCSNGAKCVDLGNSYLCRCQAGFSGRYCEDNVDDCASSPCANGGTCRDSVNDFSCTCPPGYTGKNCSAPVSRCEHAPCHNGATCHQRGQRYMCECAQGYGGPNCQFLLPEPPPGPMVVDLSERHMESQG
T1 sequence (Q9JI71 28-525 limits assumed): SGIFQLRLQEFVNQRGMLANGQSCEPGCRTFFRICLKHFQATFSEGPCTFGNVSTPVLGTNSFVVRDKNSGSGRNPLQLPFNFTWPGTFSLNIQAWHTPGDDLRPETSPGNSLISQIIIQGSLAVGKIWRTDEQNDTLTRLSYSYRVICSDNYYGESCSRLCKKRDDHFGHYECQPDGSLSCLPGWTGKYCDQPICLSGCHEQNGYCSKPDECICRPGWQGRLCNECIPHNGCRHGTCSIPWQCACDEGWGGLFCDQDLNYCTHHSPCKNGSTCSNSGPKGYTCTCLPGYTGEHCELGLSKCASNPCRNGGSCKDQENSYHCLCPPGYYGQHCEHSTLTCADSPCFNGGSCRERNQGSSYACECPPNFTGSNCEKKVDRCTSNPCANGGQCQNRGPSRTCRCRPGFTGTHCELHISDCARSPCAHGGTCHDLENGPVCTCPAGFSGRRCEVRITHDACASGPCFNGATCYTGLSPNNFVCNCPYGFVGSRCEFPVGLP
T3 sequence (Q9Y219 27-1080, change not shown): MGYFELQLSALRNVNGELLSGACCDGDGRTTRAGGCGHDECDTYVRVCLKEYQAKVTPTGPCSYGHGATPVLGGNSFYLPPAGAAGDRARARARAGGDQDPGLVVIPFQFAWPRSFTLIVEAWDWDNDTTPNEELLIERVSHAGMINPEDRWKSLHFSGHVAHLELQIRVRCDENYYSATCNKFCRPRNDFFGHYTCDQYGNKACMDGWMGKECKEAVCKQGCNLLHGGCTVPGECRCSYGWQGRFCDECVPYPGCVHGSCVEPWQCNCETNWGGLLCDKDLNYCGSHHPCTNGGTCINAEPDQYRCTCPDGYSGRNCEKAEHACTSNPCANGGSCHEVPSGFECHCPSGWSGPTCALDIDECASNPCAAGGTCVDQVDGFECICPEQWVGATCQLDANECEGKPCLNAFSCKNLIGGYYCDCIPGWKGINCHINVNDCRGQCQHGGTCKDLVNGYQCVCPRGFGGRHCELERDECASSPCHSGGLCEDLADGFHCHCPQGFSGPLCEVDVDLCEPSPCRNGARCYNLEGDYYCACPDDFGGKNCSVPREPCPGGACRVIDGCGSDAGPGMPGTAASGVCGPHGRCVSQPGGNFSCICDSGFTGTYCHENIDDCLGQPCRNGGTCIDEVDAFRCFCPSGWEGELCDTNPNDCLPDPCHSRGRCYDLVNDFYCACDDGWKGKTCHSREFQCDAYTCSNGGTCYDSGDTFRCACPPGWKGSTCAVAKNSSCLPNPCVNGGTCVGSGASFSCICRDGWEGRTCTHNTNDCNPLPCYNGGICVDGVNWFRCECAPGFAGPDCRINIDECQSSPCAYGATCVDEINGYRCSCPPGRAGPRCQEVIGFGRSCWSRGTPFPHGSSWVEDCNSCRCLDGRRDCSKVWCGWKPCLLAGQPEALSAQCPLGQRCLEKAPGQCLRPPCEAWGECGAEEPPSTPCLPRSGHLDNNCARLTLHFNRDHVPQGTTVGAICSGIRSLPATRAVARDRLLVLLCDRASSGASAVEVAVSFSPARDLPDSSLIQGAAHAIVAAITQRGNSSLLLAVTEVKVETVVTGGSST

koff [6]: 0.000189 s⁻¹
kon [6]: 331000 M⁻¹ s⁻¹
EC50 (read off the curve) [7]: ~0.4 nM
IC50 [8]: 0.3 to 0.9 nM
IC50, human Jagged-1 induced human Notch2 activation co-culture assay (12xCSL firefly luciferase reporter in SK-MEL-28 cells) [9]: 1.69 nM
avg IC50, human Jagged-1 induced human Notch2 activation co-culture assay (12xCSL firefly luciferase reporter in SK-MEL-28 cells) [9]: 2.31 nM
IC50, murine Jagged-1 induced murine Notch1 activation co-culture assay (7xCSL firefly luciferase reporter in 293T/murine Notch1 cells) [10]: 7.72 nM
avg IC50, murine Jagged-1 induced murine Notch1 activation co-culture assay (7xCSL firefly luciferase reporter in 293T/murine Notch1 cells) [10]: 9 nM
IC50 [11]: 0.8 nM
IC50 [12]: 0.51 nM
IC50 [13]: 0.39 nM
Kd [14]: 0.61 nM
B1: anti-hJagged1 mAb 15D11.1 (antibody, V domains shown)
VH: QVTLKESGPVLVKPTETLTLTCTVSGFSLSNAEMGVSWIRQPPGKALEWLAHLFSNDEKSYSTSLKSRLTISKDTSKSQVVLTMTDLDPVDTATYYCARSFNWNYDFDYWGQGTLVTVSS
VL: QSALTQPASVSGSPGQSITISCTGTSSAVGGHNFVSWYQQYPGKAPKLMIYEVSNRPSGVSTRFSGSKSGNTASLTISGLQAEDEADYYCSSYTSSSTWVFGGGTRLTVL
notes: Fully human monoclonal antibody from XenoMouse (XMG2-KL / XMG4-KL) hybridomas; also called iPS:480499; anti-Jag-1 15D11.1
binding result [1]: no binding (tested: about log 1.8 nM (about 60 nM))
binding result [2]: no binding (tested: about log 1.8 nM (about 60 nM))
binding result [3]: no binding (tested: about log 1.8 nM (about 60 nM))
binding result [4]: no binding (tested: about log 1.8 nM (about 60 nM))
binding result [5]: no binding (tested: about log 1.8 nM (about 60 nM))
